Experimental data published in publication PMC3795040.

What was measured:
[1] = target: HA33 (full-length, residues M1–P293), expressed alone (Clostridium botulinum strain 62A (BoNT/A1-producing)) (UniProt P0DPR0); experiment: AUC
[2] = target: HA complex (HA70–HA17–HA33), recombinant, reconstituted in vitro (Clostridium botulinum strain 62A (BoNT/A1-producing)) (UniProt Q45871); experiment: […], pH 7.6 with 100 mM NaCl; […]
[3] = target: mini-HA complex (HA70^D3–HA17–HA33) (Clostridium botulinum strain 62A (BoNT/A1-producing)) (UniProt Q45871); experiment: […], pH 7.6 with 100 mM NaCl; […]
[4] = target: HA70 of BoNT/A (full-length, residues M1–N626) (Clostridium botulinum strain 62A (BoNT/A1-producing)); experiment: AUC

In the case of “HA33 (full-length, residues M1–P293), expressed alone (from UniProt P0DPR0 1-286) (natural protein)”, the stoichiometry N [1] is reported as 2.

Substance “HA complex (HA70–HA17–HA33), recombinant, reconstituted in vitro (from UniProt Q45871 1-293)” has a Kd [2] of 10.9 µM.

“mini-HA complex (HA70^D3–HA17–HA33) (from UniProt Q45871 1-293)” gave a Kd [3] of 23.1 µM.

“HA70 of BoNT/A (full-length, residues M1–N626) (natural protein)” was tested, and the stoichiometry N (HA70 chains in the oligomer) [4] was 3.
